# From the RNAGym collection of RNA variant scans (doi:10.7554/elife.80360)
# B1: Hairpin Ribozyme (parent)
# chain: GUCCUCUUUCACGUGCGCGUGAAAGAGAGAAGUGAACCAGAGAAACACACGUUGUGGUAUAUUACCUGGUA
# Variants of: B1
# Assay: self-cleavage, relative activity (ratio to wild type); higher = more cleavage; co-transcriptional
row,Variant,self-cleavage
1,GUCCUCUUUCACGUGCGCGUGAAAGAGAGAAGUGAACCAGGGAAACACACGUUGUGGUAUAUUACCUGGCA [A41G U70C],0.981
2,GUCCUCUUUCACGUGCGCGUGAAAGAGAGAAGUGAACCAGGGAAACACACGUUGUGGUAUAUUACCUGGGA [A41G U70G],0.677
3,GUCCUCUUUCACGUGCGCGUGAAAGAGAGAAGUGAACCAGGGAAACACACGUUGUGGUAUAUGACCUGGUA [A41G U63G],0.248
4,GUCCUCUUUCACGUGCGCGUGAAAGAGAGAAGUGAACCAGGGAAACACACGUUGUGGUAUAUCACCUGGUA [A41G U63C],0.0946
5,GUCCUCUUUCACGUGCGCGUGAAAGAGAGAAGUGAACCAGCGAAACACACGUUGUGGUAUAUUACCGGGUA [A41C U67G],0.124
6,GUCCUCUUUCACGUGCGCGUGAAAGAGAGAAGUGAACCAGGGAAACACACGUUGUGGAAUAUUACCUGGUA [A41G U58A],0.46
7,GUCCUCUUUCACGUGCGCGUGAAAGAGAGAAGUGAACCAGGGAAACACACGUUGUGGCAUAUUACCUGGUA [A41G U58C],0.911
8,GUCCUCUUUCACGUGCGCGUGAAAGAGAGAAGUGAACCAGCGAAACACACGUUGUGGUAAAUUACCUGGUA [A41C U60A],1.17
9,GUCCUCUUUCACGUGCGCGUGAAAGAGAGAAGUGAACCAGCGAAACACACGUUGUGGUACAUUACCUGGUA [A41C U60C],1.27
10,GUCCUCUUUCACGUGCGCGUGAAAGAGAGAAGUGAACCAGCUAAACACACGUUGUGGUAUAUUACCUGGUA [A41C G42U],0.231
11,GUCCUCUUUCACGUGCGCGUGAAAGAGAGAAGUGAACCAGUGAAACUCACGUUGUGGUAUAUUACCUGGUA [A41U A47U],0.207
12,GUCCUCUUUCACGUGCGCGUGAAAGAGAGAAGUGAACCAGUGAAACGCACGUUGUGGUAUAUUACCUGGUA [A41U A47G],0.207
13,GUCCUCUUUCACGUGCGCGUGAAAGAGAGAAGUGAACCAGGCAAACACACGUUGUGGUAUAUUACCUGGUA [A41G G42C],0.0762
14,GUCCUCUUUCACGUGCGCGUGAAAGAGAGAAGUGAACCAGGAAAACACACGUUGUGGUAUAUUACCUGGUA [A41G G42A],0.282
15,GUCCUCUUUCACGUGCGCGUGAAAGAGAGAAGUGAACCAGUGAAACACACGUUGUGAUAUAUUACCUGGUA [A41U G57A],0.145
16,GUCCUCUUUCACGUGCGCGUGAAAGAGAGAAGUGAACCAGUGAAACACACGUUGUGCUAUAUUACCUGGUA [A41U G57C],0.178
17,GUCCUCUUUCACGUGCGCGUGAAAGAGAGAAGUGAACCAGGGAAACACACGUUGUGCUAUAUUACCUGGUA [A41G G57C],0.172
18,GUCCUCUUUCACGUGCGCGUGAAAGAGAGAAGUGAACCAGGGAAACACACGUUGUGGUACAUUACCUGGUA [A41G U60C],1.23
19,GUCCUCUUUCACGUGCGCGUGAAAGAGAGAAGUGAACCAGUGAAACAGACGUUGUGGUAUAUUACCUGGUA [A41U C48G],0.241

row,Variant,self-cleavage
1,GUCCUCUUUCACGUGCGCGUGAAAGAGAGAAGUGAACCAGGGAAACACACGCUGUGGUAUAUUACCUGGUA [A41G U52C],0.827
2,GUCCUCUUUCACGUGCGCGUGAAAGAGAGAAGUGAACCAGUGAAAAACACGUUGUGGUAUAUUACCUGGUA [A41U C46A],0.0476
3,GUCCUCUUUCACGUGCGCGUGAAAGAGAGAAGUGAACCAGCGAAACACACGUUGUGGUAUAUUACUUGGUA [A41C C66U],0.614
4,GUCCUCUUUCACGUGCGCGUGAAAGAGAGAAGUGAACCAGCGAAACACACGUUGUGGUAUAUUACGUGGUA [A41C C66G],0.292
5,GUCCUCUUUCACGUGCGCGUGAAAGAGAGAAGUGAACCAGCGAAACACACGUUGUGGUAUAUUACAUGGUA [A41C C66A],0.214
6,GUCCUCUUUCACGUGCGCGUGAAAGAGAGAAGUGAACCAGGGAAACACACGUUGUGGUAUAUUAACUGGUA [A41G C65A],0.693
7,GUCCUCUUUCACGUGCGCGUGAAAGAGAGAAGUGAACCAGCGAAACACACUUUGUGGUAUAUUACCUGGUA [A41C G51U],1.48
8,GUCCUCUUUCACGUGCGCGUGAAAGAGAGAAGUGAACCAGCGAAACACACAUUGUGGUAUAUUACCUGGUA [A41C G51A],1.33
9,GUCCUCUUUCACGUGCGCGUGAAAGAGAGAAGUGAACCAGCGAAACACACCUUGUGGUAUAUUACCUGGUA [A41C G51C],1.16
10,GUCCUCUUUCACGUGCGCGUGAAAGAGAGAAGUGAACCAGGGAAAGACACGUUGUGGUAUAUUACCUGGUA [A41G C46G],0.116
11,GUCCUCUUUCACGUGCGCGUGAAAGAGAGAAGUGAACCAGUGAAACACAUGUUGUGGUAUAUUACCUGGUA [A41U C50U],0.781
12,GUCCUCUUUCACGUGCGCGUGAAAGAGAGAAGUGAACCAGCGAAACACACGUCGUGGUAUAUUACCUGGUA [A41C U53C],0.822
13,GUCCUCUUUCACGUGCGCGUGAAAGAGAGAAGUGAACCAGGGAAACACACGUUGUGGUAUAUUACGUGGUA [A41G C66G],0.255
14,GUCCUCUUUCACGUGCGCGUGAAAGAGAGAAGUGAACCAGUGAAACACACGUUGUGGUAUAUUACGUGGUA [A41U C66G],0.172
15,GUCCUCUUUCACGUGCGCGUGAAAGAGAGAAGUGAACCAGUGAAACACACGUUGUGGUAUAUUACAUGGUA [A41U C66A],0.271
16,GUCCUCUUUCACGUGCGCGUGAAAGAGAGAAGUGAACCAGGGAAACACACGUUGUGGUAUAUUACCUCGUA [A41G G68C],0.508
17,GUCCUCUUUCACGUGCGCGUGAAAGAGAGAAGUGAACCAGUGAAACACACGUUCUGGUAUAUUACCUGGUA [A41U G54C],0.891
18,GUCCUCUUUCACGUGCGCGUGAAAGAGAGAAGUGAACCAGCGAAACACACGUUGUGGUAUAAUACCUGGUA [A41C U62A],0.325
19,GUCCUCUUUCACGUGCGCGUGAAAGAGAGAAGUGAACCAGCGAAACACACGUUGUGGUAUAGUACCUGGUA [A41C U62G],0
